“And” between values parts separate entries of the source, which are not always exact repeats. Identical values can stand only once.
Assays:
Experiment in all cases: BLI; 6×His-ZapC or its mutants (0.5 µM) loaded on Ni-NTA biosensors, untagged FtsZ or its variants in solution; Octet-Red96, 30°C, 1× Pol buffer (50 mM HEPES-NaOH pH 6.8, 50 mM KCl, 10 mM MgCl2); apparent Kd from the signal at the end of association against concentration, one-site fit; three repeats with mean (X) and SD
Settings in all cases: both partners purified
FtsZ F285S (untagged) = target: T1, FtsZ F285S (untagged) (Escherichia coli, UniProt P0A9A6 1-383, F285S)
T1 construct: FtsZ of Escherichia coli with F285S (globular domain); Derivative of pLY17 by site-directed mutagenesis; insert starts at codon 2 as in pLY17; source: E. coli BL21(DE3), plasmid pLY19, purified (Ni-NTA); 6×His-SUMO tag removed with Ulp1; not shown: 6×His-SUMO, N-terminal, cleaved
T1 sequence (looked up): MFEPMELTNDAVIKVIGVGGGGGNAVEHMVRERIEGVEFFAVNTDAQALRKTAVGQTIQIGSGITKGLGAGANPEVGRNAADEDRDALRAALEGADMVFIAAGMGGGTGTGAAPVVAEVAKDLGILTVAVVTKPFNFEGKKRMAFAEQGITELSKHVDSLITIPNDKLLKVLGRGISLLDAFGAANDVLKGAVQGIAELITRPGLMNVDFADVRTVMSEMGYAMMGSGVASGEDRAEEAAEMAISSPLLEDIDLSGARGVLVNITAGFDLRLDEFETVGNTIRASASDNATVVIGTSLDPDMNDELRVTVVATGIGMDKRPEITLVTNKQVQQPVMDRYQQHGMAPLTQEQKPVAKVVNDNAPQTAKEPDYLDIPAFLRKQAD

FtsZ I323L (untagged) = target: T2, FtsZ I323L (untagged) (Escherichia coli, UniProt P0A9A6 1-383, I323L)
T2 construct: FtsZ of Escherichia coli with I323L (CTL); Derivative of pLY17 by site-directed mutagenesis; source: E. coli BL21(DE3), plasmid pLY20, purified (Ni-NTA); 6×His-SUMO tag removed with Ulp1; not shown: 6×His-SUMO, N-terminal, cleaved
T2 sequence (looked up): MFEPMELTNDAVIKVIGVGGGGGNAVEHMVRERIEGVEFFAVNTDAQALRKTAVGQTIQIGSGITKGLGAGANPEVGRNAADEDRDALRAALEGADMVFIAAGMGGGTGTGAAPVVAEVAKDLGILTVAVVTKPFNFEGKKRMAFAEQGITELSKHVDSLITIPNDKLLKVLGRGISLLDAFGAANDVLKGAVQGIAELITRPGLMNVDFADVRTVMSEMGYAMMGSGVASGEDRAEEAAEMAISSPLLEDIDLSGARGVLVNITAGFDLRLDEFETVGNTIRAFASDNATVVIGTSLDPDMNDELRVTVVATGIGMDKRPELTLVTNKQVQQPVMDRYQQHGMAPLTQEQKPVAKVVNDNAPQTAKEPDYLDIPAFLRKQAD

FtsZ 1-330 (untagged) = target: T3, FtsZ 1-330 (untagged) (Escherichia coli, UniProt P0A9A6 1-330)
T3 construct: FtsZ of Escherichia coli, residues 1-330; lacks most of the CTL and the CTP; Primers BsaI-out-F and 330XbaI-out-R; forward primer starts at codon 2; source: E. coli BL21(DE3), plasmid pLY340, purified (Ni-NTA); 6×His-SUMO tag removed with Ulp1; not shown: 6×His-SUMO, N-terminal, cleaved
T3 sequence (looked up): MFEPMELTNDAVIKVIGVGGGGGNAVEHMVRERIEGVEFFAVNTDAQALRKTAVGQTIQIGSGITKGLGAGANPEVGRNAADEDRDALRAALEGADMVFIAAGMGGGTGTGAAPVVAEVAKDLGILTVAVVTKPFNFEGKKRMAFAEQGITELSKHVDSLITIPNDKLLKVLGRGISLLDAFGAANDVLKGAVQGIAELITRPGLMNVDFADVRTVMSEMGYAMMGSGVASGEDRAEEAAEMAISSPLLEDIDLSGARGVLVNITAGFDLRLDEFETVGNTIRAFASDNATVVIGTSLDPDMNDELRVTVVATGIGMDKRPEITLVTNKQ

[1] = target: T4, FtsZ (untagged, wild type) (Escherichia coli, UniProt P0A9A6 1-383)
T4 construct: also called wild-type FtsZ; source: E. coli BL21(DE3), plasmid pLY17, purified (Ni-NTA); 6×His-SUMO tag removed with Ulp1; not shown: 6×His-SUMO, N-terminal, cleaved
T4 sequence (looked up): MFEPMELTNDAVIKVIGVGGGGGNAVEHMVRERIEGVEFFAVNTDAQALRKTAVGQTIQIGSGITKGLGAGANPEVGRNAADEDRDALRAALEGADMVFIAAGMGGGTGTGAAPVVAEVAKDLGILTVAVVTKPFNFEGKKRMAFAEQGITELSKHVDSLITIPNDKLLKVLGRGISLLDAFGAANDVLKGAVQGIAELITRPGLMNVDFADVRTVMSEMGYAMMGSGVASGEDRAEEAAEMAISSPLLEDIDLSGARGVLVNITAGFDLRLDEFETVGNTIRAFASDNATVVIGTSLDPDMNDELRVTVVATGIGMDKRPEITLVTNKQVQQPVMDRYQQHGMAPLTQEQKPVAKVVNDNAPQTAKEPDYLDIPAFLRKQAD

Kd (FtsZ F285S (untagged)): 5020 nM and 6370 nM and 6130 nM and 5840 nM
Kd (FtsZ I323L (untagged)): 647 nM and 635 nM and 620 nM and 579 nM
Kd (FtsZ 1-330 (untagged)): 1610 nM and 1810 nM and 1590 nM and 1670 nM
Kd [1]: 377 nM and 395 nM and 364 nM and 379 nM
B1: 6×His-ZapC (natural protein)
chain: not shown
notes: ZapC, FtsZ-associated protein of Escherichia coli; Construction of pSD323 is not described; also called His-tagged ZapC; source: E. coli, plasmid pSD323 (pQE80, Plac::6×His-ZapC), purified (Ni-NTA); not shown: His6, N-terminal, kept

Reference: PMC12607630, “ZapC crosslinks FtsZ filaments through a dual-binding mechanism modulated by the intrinsically disordered linker of FtsZ in Escherichia coli” (mBio, 2025)
